Data set [1] concerns the target T4SS_(3-10) complex of plasmid R388 (TrwM/VirB3 to TrwE/VirB10) (conjugative plasmid R388). The experiment in a line: cysteine labelling with Alexa Fluor 633 C5 maleimide and fluorescence of SDS-PAGE bands; co-purified T4SS3-10+D4 complex denatured in 1% SDS, reduced with TCEP, labelled; band of TrwE (14 copies) as reference; three independent preparations.
Data set [2] concerns the molecule itself. The experiment in a line: negative stain electron microscopy structure; co-purified T4SS3-10+D4 complex from the ΔtrwD/virB11 construct, cross-linked with 0.1% glutaraldehyde on a 10-30% sucrose gradient (GraFix); 2% uranyl acetate; reconstruction of the inner membrane complex, C2 symmetry, 28 Å.

The results in this text go back to paper PMC5916273, “Structure of a VirD4 coupling protein bound to a VirB type IV secretion machinery” (The EMBO Journal, 2017).

“TrwB/VirD4 coupling protein of plasmid R388, N-terminally His-tagged (from UniProt Q04230 1-507) (natural protein)” yielded a stoichiometry N (TrwB subunits per complex) in data set [1] of 4.5.

B1: TrwB/VirD4 coupling protein of plasmid R388, N-terminally His-tagged (natural protein, conjugative plasmid R388, UniProt Q04230 1-507, looked up)
chain: MHPDDQRKVSAGIVIVLPLIFWITAVQKTEVLGSPKLLALWELMKLTPQKPILLLSALGGLAVGVLFVWLLNSVGQGEFGGAPFKRFLRGTRIVSGGKLKRMTREKAKQVTVAGVPMPRDAEPRHLLVNGATGTGKSVLLRELAYTGLLRGDRMVIVDPNGDMLSKFGRDKDIILNPYDQRTKGWSFFNEIRNDYDWQRYALSVVPRGKTDEAEEWASYGRLLLRETAKKLALIGTPSMRELFHWTTIATFDDLRGFLEGTLAESLFAGSNEASKALTSARFVLSDKLPEHVTMPDGDFSIRSWLEDPNGGNLFITWREDMGPALRPLISAWVDVVCTSILSLPEEPKRRLWLFIDELASLEKLASLADALTKGRKAGLRVVAGLQSTSQLDDVYGVKEAQTLRASFRSLVVLGGSRTDPKTNEDMSLSLGEHEVERDRYSKNTGKHHSTGRALERVRERVVMPAEIANLPDLTAYVGFAGNRPIAKVPLEIKQFANRQPAFVEGTI
notes: TrwB (VirD4 homologue), coupling protein encoded by the conjugative plasmid R388; whole gene cloned after trwD/virB11; theoretical molecular weight with 10 additional histidines 57 kDa; Inner membrane protein; also called His trwB_(/virD4); source: detergent-solubilised membranes; co-purified (Strep column, HisTrap); not shown: His10, N-terminal, kept
With B1, in data set [2], the “stoichiometry N” value was 2 TrwB molecules in each region of density.
